The supplement of paper PMC9112550, “Optimization of the antimicrobial peptide Bac7 by deep mutational scanning” (BMC Biology, 2022)

system: Escherichia coli TOP10; experiment: shrunken log2 fold change of peptide-encoding DNA abundance (4.5 h post-induction vs induction); higher = less antimicrobial activity (less host growth inhibition); details: time post-induction: 4.5 h; library: site-saturation at positions 5, 18, 19, 20
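Note: peptides expressed intracellularly from a pBAD plasmid library in pooled LB shake-flask culture, induced with 0.3% L-arabinose, DNA abundance read by NGS, three biological replicates, DESeq2 with apeglm shrinkage.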

Sequence | shrunken log2 fold change
RRIRSRPPRLPRPRPRPIHDPRP | -0.128
RRIRSRPPRLPRPRPRPMMSPRP | 0.0638
RRIRWRPPRLPRPRPRPIIKPRP | -0.312
RRIRHRPPRLPRPRPRPMFMPRP | -0.256
RRIRVRPPRLPRPRPRPYTHPRP | -0.912
RRIRKRPPRLPRPRPRPSKTPRP | 0.0486
RRIRQRPPRLPRPRPRPPLPPRP | 0.424
RRIRARPPRLPRPRPRPCVLPRP | -0.0267
RRIRNRPPRLPRPRPRPGQQPRP | -0.0199
RRIRNRPPRLPRPRPRPKHCPRP | -0.111
RRIRMRPPRLPRPRPRPNCLPRP | -0.00154
RRIRHRPPRLPRPRPRPFRDPRP | 0.0888
RRIRSRPPRLPRPRPRPNKIPRP | -0.294
RRIRIRPPRLPRPRPRPTEHPRP | -0.449
RRIRYRPPRLPRPRPRPEKSPRP | -0.0559
RRIRMRPPRLPRPRPRPKIHPRP | -0.0387
RRIRFRPPRLPRPRPRPAMVPRP | -0.149
RRIRKRPPRLPRPRPRPTNCPRP | 0.0303
RRIRERPPRLPRPRPRPDNMPRP | -0.2
RRIRERPPRLPRPRPRPWIEPRP | -0.206
RRIRIRPPRLPRPRPRPGDEPRP | -0.0396
RRIRRRPPRLPRPRPRPIPTPRP | 0.063

Sequence | shrunken log2 fold change
RRIRERPPRLPRPRPRPPTFPRP | -0.767
RRIRRRPPRLPRPRPRPTKMPRP | 0.248
RRIRWRPPRLPRPRPRPNQPPRP | 0.198
RRIRKRPPRLPRPRPRPPNLPRP | 0.492
RRIRARPPRLPRPRPRPQHGPRP | -0.265
RRIRCRPPRLPRPRPRPGVTPRP | -0.175
RRIRCRPPRLPRPRPRPMDWPRP | -0.0172
RRIRKRPPRLPRPRPRPHDRPRP | 0.29
RRIRIRPPRLPRPRPRPVKSPRP | -0.0366
RRIRARPPRLPRPRPRPMGLPRP | 0.00193
RRIRQRPPRLPRPRPRPCWFPRP | -0.257
RRIRGRPPRLPRPRPRPQKLPRP | 0.13
RRIRHRPPRLPRPRPRPHPKPRP | 0.0027
RRIRSRPPRLPRPRPRPSPEPRP | 0.0709
RRIRFRPPRLPRPRPRPGWMPRP | -0.0518
RRIRFRPPRLPRPRPRPTECPRP | -0.0986
RRIRSRPPRLPRPRPRPAFDPRP | 1.02
RRIRPRPPRLPRPRPRPGGHPRP | 0.372
RRIRTRPPRLPRPRPRPSDQPRP | -0.183
RRIRNRPPRLPRPRPRPQFKPRP | -0.3
RRIRLRPPRLPRPRPRPHLEPRP | 0.0765
RRIRQRPPRLPRPRPRPSPVPRP | 0.0734

Sequence | shrunken log2 fold change
RRIRPRPPRLPRPRPRPKTWPRP | 0.0474
RRIRVRPPRLPRPRPRPAIHPRP | -0.23
RRIRDRPPRLPRPRPRPGYKPRP | -0.121
RRIRIRPPRLPRPRPRPYSAPRP | -0.221
RRIRRRPPRLPRPRPRPAIGPRP | 0.136
RRIRARPPRLPRPRPRPIQSPRP | -0.035
RRIRDRPPRLPRPRPRPTVRPRP | 0.0184
RRIRMRPPRLPRPRPRPVMLPRP | -0.28
RRIRVRPPRLPRPRPRPYSKPRP | 0.12
RRIRTRPPRLPRPRPRPPDLPRP | 0.243
RRIRCRPPRLPRPRPRPASNPRP | -0.342
RRIRDRPPRLPRPRPRPETWPRP | 0.0111
RRIRARPPRLPRPRPRPMWNPRP | -0.342
RRIRVRPPRLPRPRPRPGESPRP | 0.0694
RRIRFRPPRLPRPRPRPKVFPRP | 0.0358
RRIRDRPPRLPRPRPRPKAWPRP | 0.107
RRIRQRPPRLPRPRPRPVYKPRP | -0.612
RRIRQRPPRLPRPRPRPTDWPRP | 0.0907
RRIRIRPPRLPRPRPRPAFLPRP | -0.279
RRIRERPPRLPRPRPRPIMFPRP | -0.193
RRIRPRPPRLPRPRPRPQVMPRP | -0.286
RRIRFRPPRLPRPRPRPQQPPRP | -0.00359

Sequence | shrunken log2 fold change
RRIRCRPPRLPRPRPRPQQTPRP | -0.00158
RRIRIRPPRLPRPRPRPDSYPRP | 0.072
RRIRDRPPRLPRPRPRPTNSPRP | 0.115
RRIRPRPPRLPRPRPRPVVKPRP | -0.181
RRIRYRPPRLPRPRPRPLNLPRP | -0.369
RRIRHRPPRLPRPRPRPEYMPRP | -0.05
RRIRVRPPRLPRPRPRPVWGPRP | 1.8
RRIRFRPPRLPRPRPRPPPSPRP | 1.35
RRIRTRPPRLPRPRPRPTEHPRP | -0.106
RRIRPRPPRLPRPRPRPPSWPRP | 0.54
RRIRHRPPRLPRPRPRPMCYPRP | 0.118
RRIRGRPPRLPRPRPRPFIAPRP | 0.245
RRIRTRPPRLPRPRPRPKIHPRP | -0.427
RRIRPRPPRLPRPRPRPIMDPRP | -0.00126
RRIRCRPPRLPRPRPRPWIKPRP | -1.1
RRIRWRPPRLPRPRPRPNVYPRP | -0.234
RRIRARPPRLPRPRPRPEQYPRP | -0.0243
RRIRHRPPRLPRPRPRPWKNPRP | -0.187
RRIRKRPPRLPRPRPRPELCPRP | -0.021
RRIRQRPPRLPRPRPRPQWWPRP | 0.0549
RRIRRRPPRLPRPRPRPALPPRP | 0.48
RRIRMRPPRLPRPRPRPYYWPRP | -0.123

Sequence | shrunken log2 fold change
RRIRLRPPRLPRPRPRPFCIPRP | -0.22
RRIRFRPPRLPRPRPRPQCCPRP | -0.067
RRIRRRPPRLPRPRPRPDNAPRP | -0.227
RRIRERPPRLPRPRPRPYVPPRP | -0.0961
RRIRDRPPRLPRPRPRPRDTPRP | 0.575
RRIRTRPPRLPRPRPRPPSGPRP | 0.467
RRIRPRPPRLPRPRPRPNDQPRP | 1.93
RRIRTRPPRLPRPRPRPCSCPRP | -0.0701
RRIRARPPRLPRPRPRPIDGPRP | 0.00408
RRIRTRPPRLPRPRPRPLADPRP | 0.125
RRIRKRPPRLPRPRPRPMYAPRP | -0.145
RRIRHRPPRLPRPRPRPTKWPRP | 0.0132
RRIRWRPPRLPRPRPRPIMSPRP | -0.161
RRIRIRPPRLPRPRPRPKATPRP | -0.141
RRIRQRPPRLPRPRPRPHKEPRP | 0.114
RRIRKRPPRLPRPRPRPLDLPRP | -0.203
RRIRYRPPRLPRPRPRPIQTPRP | -0.499
RRIRWRPPRLPRPRPRPAHCPRP | -0.0174
RRIRWRPPRLPRPRPRPKILPRP | -0.0469
RRIRVRPPRLPRPRPRPKDNPRP | -0.438
RRIRLRPPRLPRPRPRPIGNPRP | 0.0592
